Test results as given in patent publication US11529390B2, “PCSK9 inhibitory polypolypeptides and methods of use” (INSTITUT DE CARDIOLOGIE DE MONTREAL, priority 2015, dated 2022).
Read-outs that look alike come from different tables or passages of the source.

Target: T1, PCSK9-V5 (Homo sapiens, UniProt Q8NBP7)
T1 construct: Full-length human V5-tagged PCSK9 and LDLR were subcloned into pIRES2-EGFP; expressed in transfected cells; host or cells: HEK293
Assay: Co-immunoprecipitation of GRP94 constructs with PCSK9-V5 in transfected HEK293 cells
Assay type: binding
Experimental: FIG. 2: Mapping of the PCSK9-GRP94 interacting domain. (a-b) HEK293 cells were transfected without (−) or with (+) PCSK9-V5 or SEQ ID NO. 66, 64 or 65. A PCSK9 V5 epitope-tag fusion protein (PCSK9-V5) was immune-precipitated from cell lysates using mAb-V5 antibody (IP: V5) and immune-blotted as indicated. Total GRP94 (SEQ. ID. NO. 3) and PCSK9 (SEQ. ID. NO. 1) protein levels were analyzed by immune-blotting in cell lysates (input) and conditioned media. (c) Left panel; HEK293 cells were transfected without (−) or with (+) PCSK9-V5, SEQ. ID. NO. 66 or 46. PCSK9-V5 was immune-precipitated for cell lysates (IP: V5) and immune-blotted (IB) as indicated. Total GRP94 and PCSK9 protein levels were also analyzed by immune-blotting and herein used as a control (input). Right panel; GRP94 homodimer (gray and yellow) crystal structure was determined from PDB file #2O1V using MacPymol software. […] 6 in which critical residues for PCSK9 binding determined in (b) are indicated in blue for SEQ. ID. NO. 64 and red for SEQ. ID. NO. 65. Data are representative of at least three independent experiments.
For identification of novel PCSK9 interactors, HepG2 or Huh-7 cells (55 cm2) were washed three times in phosphate-buffered saline (PBS) and incubated with 1 mM dithiobis[succinimidylpropionate] (DSP; Cat. #22585, Thermo Scientific), a thiol-cleavable cross-linking reagent, for 30 min at room temperature and subsequently switch for 15 min into a stop solution (15 mM Tris, pH 7.5). Cells were then lysed in complete radio-immune precipitation assay (RIPA) buffer (50 mM Tris/HCl, pH 8.0, 1% (v/v) Nonidet P40, 0.5% sodium deoxycholate, 150 mM NaCl and 0.1% (v/v) sodium dodecyl sulfate (SDS)) supplemented with a complete protease inhibitor mixture (Cat. #11 697 498 001, Roche Applied Science), passed 25 times through a 22-gauge needle and centrifuged at 11,000 g for 15 min at 4° C. Supernatants were incubated and rotated overnight with pre-immune serum, rabbit anti-hPCSK9 (amino acids 31-454) (1:250; Dr. Nabil Seidah, Clinical Research Institute of Montreal) or mouse anti-V5-tag (1:500; Cat. #R96025, Life Technologies) together with 50 μl protein A/G PLUS-agarose (Cat. #sc-2003, Santa Cruz). Following overnight incubation, beads were washed six times in RIPA buffer and resuspended in 75 μl Laemmli sample buffer. Co-immunoprecipitated (Co-IP) proteins were separated by 8% SDS-polyacrylamide gel electrophoresis and visualized using the Pierce silver stain kit (Cat. #24600, Thermo Scientific) according the manufacturer's instructions. All other Co-IP experiments were performed as described without the cross-linking step and in SDS-deprived RIPA buffer. HA-tagged proteins and GRP94 were immunoprecipitated with mouse anti-HA-tag (1:500; Cat. #H3663, Sigma-Aldrich) or rat anti-Grp94 (9G10, 1:1000; Cat. #ADI-SPA-850, Enzo Life Sciences).
We next decided to map GRP94 domain(s) important for PCSK9 protein-protein interaction. The overall domain structure of GRP94 includes a signal polypeptide (amino acids; aa1-21) followed by a N-terminal enzymatic ATP-binding domain (aa22-651), client-binding domain (CBD; aa652-678), C-terminal dimerization domain (aa679-799) and a KDEL polypeptide sequence (aa800-803) allowing retention of GRP94 in the endoplasmic reticulum. (Dollins et al., 2007; Maki et al., 1990; Wu et al., 2012) Thus, we first generated cDNA constructs encoding secretable HA-tagged forms of human GRP94 lacking its C-terminal KDEL polypeptide (SEQ ID. NO. 66; FIG. 2). HEK293 cells were transfected without or with SEQ ID. NO. 66 in absence or presence of PCSK9-V5 (FIG. 2a). […] NO. 66 is well expressed (Input; IB: HA) and secreted into media and that SEQ ID. NO. […] It was reported that a 27 aa C-terminal hydrophobic loop structure within GRP94 client-binding domain (CBD, amino acids aa652-678; ^652[…], SEQ ID. NO. 4) was important for folding and interaction with Toll-like receptors and integrins. (Wu et al., 2012) Deletion or alanine-scan mutations in SEQ ID. […]

T1 sequence (Q8NBP7 153-692): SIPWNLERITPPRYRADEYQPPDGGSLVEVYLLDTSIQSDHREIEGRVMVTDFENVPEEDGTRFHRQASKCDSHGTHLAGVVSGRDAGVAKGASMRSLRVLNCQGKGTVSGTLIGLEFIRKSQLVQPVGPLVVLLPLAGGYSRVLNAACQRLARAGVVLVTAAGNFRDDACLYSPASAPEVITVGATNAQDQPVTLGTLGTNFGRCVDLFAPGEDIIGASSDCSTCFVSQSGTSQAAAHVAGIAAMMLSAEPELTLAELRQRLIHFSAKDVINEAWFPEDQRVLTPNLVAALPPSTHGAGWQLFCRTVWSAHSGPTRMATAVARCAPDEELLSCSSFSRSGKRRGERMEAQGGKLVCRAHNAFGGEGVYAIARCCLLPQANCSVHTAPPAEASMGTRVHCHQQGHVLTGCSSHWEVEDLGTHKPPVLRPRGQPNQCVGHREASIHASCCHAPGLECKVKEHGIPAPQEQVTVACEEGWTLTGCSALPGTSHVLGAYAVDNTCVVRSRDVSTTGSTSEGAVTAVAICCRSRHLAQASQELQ

B1: SEQ ID. NO. 65: alanine-scanning mutant of GRP94-ΔKDEL, CBD region YGWSGNMERIMKAQAYATGKAISTNAA (SEQ ID. NO. 79) (protein, listed as Homo Sapiens)
chain: MRALWVLGLCCVLLTFGSVRADDEVDVDGTVEEDLGKSREGSRTDDEVVQREEEAIQLDGLNASQIRELREKSEKFAFQAEVNRMMKLIINSLYKNKEIFLRELISNASDALDKIRLISLTDENALSGNEELTVKIKCDKEKNLLHVTDTGVGMTREELVKNLGTIAKSGTSEFLNKMTEAQEDGQSTSELIGQFGVGFYSAFLVADKVIVTSKHNNDTQHIWESDSNEFSVIADPRGNTLGRGTTITLVLKEEASDYLELDTIKNLVKKYSQFINFPIYVWSSKTETVEEPMEEEEAAKEEKEESDDEAAVEEEEEEKKPKTKKVEKTVWDWELMNDIKPIWQRPSKEVEEDEYKAFYKSFSKESDDPMAYIHFTAEGEVTFKSILFVPTSAPRGLFDEYGSKKSDYIKLYVRRVFITDDFHDMMPKYLNFVKGVVDSDDLPLNVSRETLQQHKLLKVIRKKLVRKTLDMIKKIADDKYNDTFWKEFGTNIKLGVIEDHSNRTRLAKLLRFQSSHHPTDITSLDQYVERMKEKQDKIYFMAGSSRKEAESSPFVERLLKKGYEVIYLTEPVDEYCIQALPEFDGKRFQNVAKEGVKFDESEKTKESREAVEKEFEPLLNWMKDKALKDKIEKAVVSQRLTESPCALVASQYGWSGNMERIMKAQAYATGKAISTNAAASQKKTFEINPRHPLIRDMLRRIKEDEDDKTVLDLAVVLFETATLRSGYLLPDTKAYGDRIERMLRLSLNIDPDAKVEEEPEEEPEETAEDTTEDTEQDEDEEMDVGTDEEEETAKESTAEYPYDVPDYA
Interaction (binding) with PCSK9 by co-immunoprecipitation: abrogate binding to PCSK9
Interaction (binding) with PCSK9 by co-immunoprecipitation (listed as AA2): abolished PCSK9 binding

B2: SEQ ID. NO. 64: alanine-scanning mutant of GRP94-ΔKDEL, CBD region YAASAAAAAIMKAQAYQTGKDISTNYY (SEQ ID. NO. 78) (protein, listed as Homo Sapiens)
chain: MRALWVLGLCCVLLTFGSVRADDEVDVDGTVEEDLGKSREGSRTDDEVVQREEEAIQLDGLNASQIRELREKSEKFAFQAEVNRMMKLIINSLYKNKEIFLRELISNASDALDKIRLISLTDENALSGNEELTVKIKCDKEKNLLHVTDTGVGMTREELVKNLGTIAKSGTSEFLNKMTEAQEDGQSTSELIGQFGVGFYSAFLVADKVIVTSKHNNDTQHIWESDSNEFSVIADPRGNTLGRGTTITLVLKEEASDYLELDTIKNLVKKYSQFINFPIYVWSSKTETVEEPMEEEEAAKEEKEESDDEAAVEEEEEEKKPKTKKVEKTVWDWELMNDIKPIWQRPSKEVEEDEYKAFYKSFSKESDDPMAYIHFTAEGEVTFKSILFVPTSAPRGLFDEYGSKKSDYIKLYVRRVFITDDFHDMMPKYLNFVKGVVDSDDLPLNVSRETLQQHKLLKVIRKKLVRKTLDMIKKIADDKYNDTFWKEFGTNIKLGVIEDHSNRTRLAKLLRFQSSHHPTDITSLDQYVERMKEKQDKIYFMAGSSRKEAESSPFVERLLKKGYEVIYLTEPVDEYCIQALPEFDGKRFQNVAKEGVKFDESEKTKESREAVEKEFEPLLNWMKDKALKDKIEKAVVSQRLTESPCALVASQYAASAAAAAIMKAQAYQTGKDISTNYYASQKKTFEINPRHPLIRDMLRRIKEDEDDKTVLDLAVVLFETATLRSGYLLPDTKAYGDRIERMLRLSLNIDPDAKVEEEPEEEPEETAEDTTEDTEQDEDEEMDVGTDEEEETAKESTAEYPYDVPDYA
Interaction (binding) with PCSK9 by co-immunoprecipitation: abrogate binding to PCSK9
Interaction (binding) with PCSK9 by co-immunoprecipitation (listed as AA1): abolished PCSK9 binding

B3: SEQ ID. NO. 7: polypeptide of the invention; in b217 apparently the truncated CBD-CT form of GRP94 (protein)
chain: MRALWVLGLCCVLLTFGSVRAYGWSGNMERIMKAQAYQTGKDISTNYYASQKKTFEINPRHPLIRDMLRRIKEDEDDKTVLDLAVVLFETATLRSGYLLPDTKAYGDRIERMLRLSLNIDPDAKVEEEPEEEPEETAEDTTEDTEQDEDEEMDVGTDEEEETAKESTAE
Interaction (binding) with PCSK9 by co-immunoprecipitation: significantly enhanced
